According to patent publication US12291570B2, “Treatment of metastatic pancreatic adenocarcinoma” (BioLineRx Ltd., priority 2018, dated 2025):
Square brackets hold non-standard residues; d marks the D form. Ends that are not written are not given here. 2Nal = N[C@@H](Cc1ccc2ccccc2c1)C(=O)O; Cit = NC(=O)NCCC[C@H](N)C(=O)O

What was measured:
[1] = Solubility of BL-8040 powder; type: physicochemical
[2] = tested on: human keratinocytes and normal human hematopoietic cells; details: cited from earlier work
[3] = tested on: metastatic pancreatic adenocarcinoma (PDAC); details: cited from earlier work
CXCR4 = CXCR4 (Homo sapiens, UniProt P61073); details: read-out: IC50, binds to CXCR4 with high affinity; cited from earlier work
[4] = tested on: metastatic pancreatic cancer; details: metastatic/advanced pancreatic cancer; cited from earlier work

Sequence of CXCR4 (P61073 whole entry, species assumed): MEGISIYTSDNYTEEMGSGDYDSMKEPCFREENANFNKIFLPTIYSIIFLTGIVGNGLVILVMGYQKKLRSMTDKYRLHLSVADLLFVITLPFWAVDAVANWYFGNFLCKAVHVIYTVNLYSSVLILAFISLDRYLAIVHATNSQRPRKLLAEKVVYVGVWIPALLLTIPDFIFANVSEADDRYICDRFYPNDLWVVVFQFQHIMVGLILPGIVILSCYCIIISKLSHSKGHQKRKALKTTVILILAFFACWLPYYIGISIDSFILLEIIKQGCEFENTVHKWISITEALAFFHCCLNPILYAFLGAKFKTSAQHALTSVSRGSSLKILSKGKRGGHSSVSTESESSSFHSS

| Substance | solubility in 0.45% Sodium Chloride (half normal saline) ([1]; 0.45% Sodium Chloride) | solubility in water ([1]; water) | effect on viability of human keratinocytes and normal human hematopoietic cells [2] | level of effector CD8 cells that express Granzyme B in the tumor microenvironment [3] | level of myeloid derived suppressor cells (MDSCs) in the tumor microenvironment [3] | IC50 (CXCR4) | increase in median survival [4] |
| --- | --- | --- | --- | --- | --- | --- | --- |
| BL-8040 (RR[2Nal]CY[Cit]K[dK]PYR[Cit]CR-NH2; not fully specified (residue 1, N-terminus, bridges); cysteine pairing not given here) | freely soluble | freely soluble | did not affect the viability | increasing | decreasing | 0.54 to 4.5 nM |  |
| FOLFIRINOX |  |  |  |  |  |  | 4.3 months |
